Measured values from paper PMC12101271 (Antibodies, 2025).

Target: T1, hemagglutinin (HA) of influenza A/H1N1, in viral protein preparations (Influenza A virus (H1N1); …, UniProt C3W5X2)
T1 construct: source: viral protein preparations from A/H1N1
Assay: ELISA

B1: VHH 2-C10 (VHH)
VHH: QVQLQESGGGLVQAGGSLRLSCVASGRTFSSYSMAWFRQAPGKEREFVASISWSDINGYYPDSVKGRFTISRDNAKNTVYLQMNSLKPEDTAVYYCAARLGLSNYHYHRVSDYDVWGQGTQVTVSS
notes: also called native VHH 2-C10; source: E. coli TOP10F', culture medium, purified (Ni-NTA agarose)
- binding result: binds
